From publication PMC12439599 (RNA (New York, N.Y.), 2025)
Positions count from the first letter of the chain named.

T1: S. cerevisiae eIF5-CTD, eIF5 residues 201–405 (S. cerevisiae, UniProt P38431 201-405)
T1 sequence: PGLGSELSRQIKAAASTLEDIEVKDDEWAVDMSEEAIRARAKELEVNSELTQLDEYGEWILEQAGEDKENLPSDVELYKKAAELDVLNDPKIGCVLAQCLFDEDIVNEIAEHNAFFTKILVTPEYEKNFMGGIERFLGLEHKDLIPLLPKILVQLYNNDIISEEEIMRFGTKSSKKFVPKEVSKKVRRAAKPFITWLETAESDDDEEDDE

B1: human 5MP1-CTD (domain or fragment, UniProt Q9Y6E2 248-419, looked up)
chain: VQQSLGTRKELQKELQERLSQECPIKEVVLYVKEEMKRNDLPETAVIGLLWTCIMNAVEWNKKEELVAEQALKHLKQYAPLLAVFSSQGQSELILLQKVQEYCYDNIHFMKAFQKIVVLFYKADVLSEEAILKWYKEAHVAKGKSVFLDQMKKFVEWLQNAEEESESEGEEN
B2: human 5MP1-CTD phosphomimetic mutant (5MP1-CTD-EE) (domain or fragment)
chain: B1 chain with S165E, S167E
B3: human eIF2β-NTT (residues 1–191), His6-tagged (domain or fragment)
chain: MSGDEMIFDPTMSKKKKKKKKPFMLDEEGDTQTEETQPSETKEVEPEPTEDKDLEADEEDTRKKDASDDLDDLNFFNQKKKKKKTKKIFDIDEAEEGVKDLKIESDVQEPTEPEDDLDIMLGNKKKKKKNVKFPDEDEILEKDEALEDEDNKKDDGISFSNQTGPAWAGSERDYTYEELLNRVFNIMREKN
B4: human eIF2Bε-CTD phosphomimetic mutant (eIF2Bε-CTD-EE) (domain or fragment)
chain: GSPQMDDIKVFQNEVLGTLQRGKEENISCDNLVLEINSLKYAYNISLKEVMQVLSHVVLEFPLQQMDSPLDSSRYCALLLPLLKAWSPVFRNYIKRAADHLEALAAIEDFFLEHEALGISMAKVLMAFYQLEILAEETILSWFSQRDTTDKGQQLRKNQQLQRFIQWLKEAEEEEEEDD
B5: human eIF2Bε-CTD (domain or fragment, UniProt Q13144 543-721, looked up)
chain: B4 chain with E175S, E176S
B6: human eIF5-CTD (residues 232–431) (domain or fragment, UniProt P55010 232-431, looked up)
chain: LERTIEERVNILFDFVKKKKEEGVIDSSDKEIVAEAERLDVKAMGPLVLTEVLFNEKIREQIKKYRRHFLRFCHNNKKAQRYLLHGLECVVAMHQAQLISKIPHILKEMYDADLLEEEVIISWSEKASKKYVSKELAKEIRVKAEPFIKWLKEAEEESSGGEEEDEDENIEVVYSKAASVPKVETVKSDNKDDDIDIDAI
B7: human eIF2β-K3 (K-box 3 with surrounding segments) (domain or fragment, UniProt P20042 106-173, looked up)
chain: DVQEPTEPEDDLDIMLGNKKKKKKNVKFPDEDEILEKDEALEDEDNKKDDGISFSNQTGPAWAGSERD
B8: S. cerevisiae eIF2β residues 39–106 (K-boxes 2 and 3 with flanking regions) (domain or fragment, UniProt P09064 39-106, looked up)
chain: GSGDDLFAGLKKKKKKSKSVSADAEAEKEPTDDIAEALGELSLKKKKKKTKDSSVDAFEKELAKAGLD

Columns and labels:
[1] = molecular target: human eIF5-CTD phosphomimetic mutant (eIF5-CTD-EE) (human) (UniProt P55010); experiment: NMR titration
[2] = molecular target: B3; experiment: NMR titration
[3] = molecular target: B7; experiment: NMR titration
[4] = molecular target: B6; experiment: NMR titration
[5] = molecular target: B6; experiment: ITC
[6] = molecular target: B4; experiment: NMR titration
[7] = molecular target: B6; experiment: NMR titration; remark: listed apart in the source
[8] = molecular target: B5; experiment: NMR titration
[9] = molecular target: B2; experiment: NMR titration
[10] = molecular target: B1; experiment: NMR titration
[11] = molecular target: B7; experiment: ITC
[12] = molecular target: B3; experiment: ITC
[13] = molecular target: T1, S. cerevisiae eIF5-CTD, eIF5 residues …; experiment: crystal structure

“human eIF2β-K1 (K-box 1 with surrounding segments) (from UniProt P20042 1-45) (domain or fragment)” gave a Kd [1] of 0.2 µM.

For “human eIF2β-NTT (residues 1–191), His6-tagged (from UniProt P20042 1-191) (domain or fragment)”, the Kd [1] was 2.3 µM.

In the case of “human eIF2β-K3 (K-box 3 with surrounding segments) (from UniProt P20042 106-173) (domain or fragment)”, the Kd [1] is reported as 0.3 µM.

Molecule B1 has a Kd [2] of 63 ± 5 µM.

For B2, the Kd [3] was 23 ± 3 µM and the Kd [2] was 45 ± 6 µM.

Work on B3 yielded a Kd [4] of 37 ± 6 µM and a Kd [5] of 33 µM.

Work on DTRKKDASDDLDDLNFFNQKKKKKKTKKIFDIDEAEEGVKDLKIES (domain or fragment, UniProt P20042 60-105, looked up) [human eIF2β-K2 (K-box 2 with surrounding segments)] yielded a Kd [6] of 2.3 ± 0.5 µM, a Kd [7] of 6 ± 1 µM and a Kd [8] of 9 ± 3 µM. For the same molecule, the Kd [9] was 5.6 ± 0.9 µM and the Kd [10] was 18 ± 3 µM.

With B4 the Kd [3] was 14 ± 1 µM and the Kd [2] was 14 ± 4 µM.

Work on B5 yielded a Kd [2] of 44 ± 3 µM.

Molecule MSGDEMIFDPTMSKKKKKKKKPFMLDEEGDTQTEETQPSETKEVE (domain or fragment, UniProt P20042 1-45, looked up) [human eIF2β-K1 (K-box 1 with surrounding segments)] has a Kd [6] of 4 ± 1 µM, a Kd [7] of 3 ± 1 µM and a Kd [8] of 8 ± 1 µM. For the same molecule, the Kd [9] was 11 ± 3 µM and the Kd [10] was 20 ± 7 µM.

In the case of B6, the “stoichiometry N” value [11] is reported as 1 and the “stoichiometry N” value [12] is reported as 3.46.

B7 showed a Kd [7] of 4 ± 1 µM, a Kd [8] of 24 ± 3 µM and a Kd [10] of 37 ± 5 µM. The Kd [5] was 4.7 µM.

B8: binds [13].
